The text below walks through data of publication PMC2811023 (Nucleic Acids Research, 2009).

T1: Staphylococcus aureus GatA (subunit A of the heterotrimeric tRNA-dependent amidotransferase GatCAB) (Staphylococcus aureus, UniProt P63488 1-485)
T1 sequence: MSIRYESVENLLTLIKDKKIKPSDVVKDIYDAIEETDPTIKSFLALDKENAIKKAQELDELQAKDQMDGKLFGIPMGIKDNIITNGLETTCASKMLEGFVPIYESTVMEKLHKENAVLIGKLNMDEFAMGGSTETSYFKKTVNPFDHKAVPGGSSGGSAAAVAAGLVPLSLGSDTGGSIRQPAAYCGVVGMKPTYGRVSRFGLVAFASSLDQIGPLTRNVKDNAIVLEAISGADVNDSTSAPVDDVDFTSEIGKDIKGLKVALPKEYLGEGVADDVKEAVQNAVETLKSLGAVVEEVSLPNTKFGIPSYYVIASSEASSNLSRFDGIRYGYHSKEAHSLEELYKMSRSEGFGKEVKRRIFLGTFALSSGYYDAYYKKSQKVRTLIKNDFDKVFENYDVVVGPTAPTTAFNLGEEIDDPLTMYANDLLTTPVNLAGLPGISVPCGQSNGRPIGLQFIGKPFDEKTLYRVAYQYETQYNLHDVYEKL

B1: Staphylococcus aureus GatB (subunit B of the heterotrimeric tRNA-dependent amidotransferase GatCAB) (enzyme)
chain: MHFETVIGLEVHVELKTDSKMFSPSPAHFGAEPNSNTNVIDLAYPGVLPVVNKRAVDWAMRAAMALNMEIATESKFDRKNYFYPDNPKAYQISQFDQPIGENGYIDIEVDGETKRIGITRLHMEEDAGKSTHKGEYSLVDLNRQGTPLIEIVSEPDIRSPKEAYAYLEKLRSIIQYTGVSDVKMEEGSLRCDANISLRPYGQEKFGTKAELKNLNSFNYVRKGLEYEEKRQEEELLNGGEIGQETRRFDESTGKTILMRVKEGSDDYRYFPEPDIVPLYIDDAWKERVRQTIPELPDERKAKYVNELGLPAYDAHVLTLTKEMSDFFESTIEHGADVKLTSNWLMGGVNEYLNKNQVELLDTKLTPENLAGMIKLIEDGTMSSKIAKKVFPELAAKGGNAKQIMEDNGLVQISDEATLLKFVNEALDNNEQSVEDYKNGKGKAMGFLVGQIMKASKGQANPQLVNQLLKQELDKR
B2: Staphylococcus aureus GatC (subunit C of the heterotrimeric tRNA-dependent amidotransferase GatCAB) (natural protein)
chain: MTKVTREEVEHIANLARLQISPEETEEMANTLESILDFAKQNDSADTEGVEPTYHVLDLQNVLREDKAIKGIPQELALKNAKETEDGQFKVPTIMNEEDA

For assay [1], the target named is T1, Staphylococcus aureus GatA (subunit A …). Kind of assay: crystal structure.
The target of assay [2] is B1. Kind of assay: crystal structure.

For B1, in assay [1], the binding result was “binds”.

Take B2: the binding result in assay [1] and in assay [2] was “binds” in each case.
